Results taken from patent US20210163584A1 (Sanofi, published 2021).

B1: mAb1 control conjugate (PAR=0) (antibody, mouse IgG1, kappa)
heavy: HVQLQQSGPELVRPGASVKLSCKASGYIFITYWMNWVKQRPGQGLEWIGQIFPASGSTNYNEMFEGKATLTVDTSSSTAYMQLSSLTSEDSAVYYCARGDGNYALDAMDYWGQGTSVTVSSAKTTPPSVYPLAPGSAAQTNSMVTLGCLVKGYFPEPVTVTWNSGSLSSGVHTFPAVLQSDLYTLSSSVTVPSSTWPSQTVTCNVAHPASSTKVDKKIVPRDCGCKPCICTVPEVSSVFIFPPKPKDVLTITLTPKVTCVVVDISKDDPEVQFSWFVDDVEVHTAQTKPREEQFNSTFRSVSELPIMHQDWLNGKEFKCRVNSAAFPAPIEKTISKTKGRPKAPQVYTIPPPKEQMAKDKVSLTCMITDFFPEDITVEWQWNGQPAENYKNTQPIMDTDGSYFVYSKLNVQKSNWEAGNTFTCSVLHEGLHNHHTEKSLSHSPGK
light: NIVLTQSPASLAVSLGQRATISCRASESVDSYGNSFMHWYQQKSGQPPKLLIYLASNLESGVPARFSGSGSRTDFTLTIDPVEADDAATYYCQQNNEDPLTFGAGTKLELKRADAAPTVSIFPPSSEQLTSGGASVVCFLNNFYPKDINVKWKIDGSERQNGVLNSWTDQDSKDSTYSMSSTLTLTKDEYERHNSYTCEATHKTSTSPIVKSFNRNEC
modifications: hinge disulfides reduced; D10-maleimide peptide omitted; thiols blocked with N-ethylmaleimide
B2: mAb1-D10 conjugate (PAR=5) (antibody, mouse IgG1, kappa)
heavy: B1 heavy
light: B1 light
modifications: Ac-D10-C2-PEG12-C6-maleimide on reduced hinge region cysteines; average 5 peptides per antibody
B3: mAb1 F7 (antibody, mouse IgG1, kappa)
heavy: HVQLQQSGPELVRPGASVKLSCKASGYIFITYWMNWVKQRPGQGLEWIGQIFPASGSTNYNEMFEGKATLTVDTSSSTAYMQLSSLTSEDSAVYYCARGDGNYALDAMDYWGQGTSVTVSSAKTTPPSVYPLAPGSAAQTNSMVTLGCLVKGYFPEPVTVTWNSGSLSSGVHTFPAVLQSDLYTLSSSVTVPSSTWPSQTVTCNVAHPASSTKVDKKIVPRDCGCKPCICTVPEVSSVFIFPPKPKDVLTITLTPKVTCVVVDISKDDPEVQFSWFVDDVEVHTAQTKPREEQFNSTFRSVSELPIMHQDWLNGKEFKCRVNSAAFPAPIEKTISKTKGRPKAPQVYTIPPPKEQMAKDKVSLTCMITDFFPEDITVEWQWNGQPAENYKNTQPIMDTDGSYFVYSKLNVQKSNWEAGNTFTCSVLHEGLHNHHTEKSLSHSPGKDDDDDDDDDD
light: DDDDDDDDDDNIVLTQSPASLAVSLGQRATISCRASESVDSYGNSFMHWYQQKSGQPPKLLIYLASNLESGVPARFSGSGSRTDFTLTIDPVEADDAATYYCQQNNEDPLTFGAGTKLELKRADAAPTVSIFPPSSEQLTSGGASVVCFLNNFYPKDINVKWKIDGSERQNGVLNSWTDQDSKDSTYSMSSTLTLTKDEYERHNSYTCEATHKTSTSPIVKSFNRNEC
notes: Mouse IgG1 fusion variant, PAR 4; also called HC-D10: D10-LC
B4: mAb1 F1 (antibody, mouse IgG1, kappa)
heavy: B1 heavy
light: B1 light
notes: Recombinant version of mAb1 without D10 peptide, mouse IgG1, PAR 0; also called Fusion 1; WT
B5: mAb1 F2 (antibody, mouse IgG1, kappa)
heavy: B1 heavy
light: B3 light
notes: Mouse IgG1 fusion variant, PAR 2; also called WT-HC: D10-LC
B6: mAb1 F6 (antibody, mouse IgG1, kappa)
heavy: B3 heavy
light: B1 light
notes: Mouse IgG1 fusion variant, PAR 2; also called HC-D10: WT-LC; mAb1-D10
B7: mAb1 F12 (antibody, mouse IgG1, kappa)
heavy: DDDDDDDDDDHVQLQQSGPELVRPGASVKLSCKASGYIFITYWMNWVKQRPGQGLEWIGQIFPASGSTNYNEMFEGKATLTVDTSSSTAYMQLSSLTSEDSAVYYCARGDGNYALDAMDYWGQGTSVTVSSAKTTPPSVYPLAPGSAAQTNSMVTLGCLVKGYFPEPVTVTWNSGSLSSGVHTFPAVLQSDLYTLSSSVTVPSSTWPSQTVTCNVAHPASSTKVDKKIVPRDCGCKPCICTVPEVSSVFIFPPKPKDVLTITLTPKVTCVVVDISKDDPEVQFSWFVDDVEVHTAQTKPREEQFNSTFRSVSELPIMHQDWLNGKEFKCRVNSAAFPAPIEKTISKTKGRPKAPQVYTIPPPKEQMAKDKVSLTCMITDFFPEDITVEWQWNGQPAENYKNTQPIMDTDGSYFVYSKLNVQKSNWEAGNTFTCSVLHEGLHNHHTEKSLSHSPGK
light: B3 light
notes: Mouse IgG1 fusion variant, PAR 4; also called D10-HC: D10-LC
B8: mAb1 F17 (antibody, mouse IgG1, kappa)
heavy: DDDDDDDDDDHVQLQQSGPELVRPGASVKLSCKASGYIFITYWMNWVKQRPGQGLEWIGQIFPASGSTNYNEMFEGKATLTVDTSSSTAYMQLSSLTSEDSAVYYCARGDGNYALDAMDYWGQGTSVTVSSAKTTPPSVYPLAPGSAAQTNSMVTLGCLVKGYFPEPVTVTWNSGSLSSGVHTFPAVLQSDLYTLSSSVTVPSSTWPSQTVTCNVAHPASSTKVDKKIVPRDCGCKPCICTVPEVSSVFIFPPKPKDVLTITLTPKVTCVVVDISKDDPEVQFSWFVDDVEVHTAQTKPREEQFNSTFRSVSELPIMHQDWLNGKEFKCRVNSAAFPAPIEKTISKTKGRPKAPQVYTIPPPKEQMAKDKVSLTCMITDFFPEDITVEWQWNGQPAENYKNTQPIMDTDGSYFVYSKLNVQKSNWEAGNTFTCSVLHEGLHNHHTEKSLSHSPGKDDDDDDDDDD
light: B3 light
notes: Mouse IgG1 fusion variant, PAR 6; also called D10-HC-D10: D10-LC
B9: mAb1 F16 (antibody, mouse IgG1, kappa)
heavy: B8 heavy
light: B1 light
notes: Mouse IgG1 fusion variant, PAR 4; also called D10-HC-D10: WT-LC
B10: mAb1 F11 (antibody, mouse IgG1, kappa)
heavy: B7 heavy
light: B1 light
notes: Mouse IgG1 fusion variant, PAR 2; also called D10-HC: WT-LC

biological target: T1, TGF-β1 (UniProt P01137 279-390); assay: cell-based or functional assay
T1 sequence (P01137 279-390 limits assumed): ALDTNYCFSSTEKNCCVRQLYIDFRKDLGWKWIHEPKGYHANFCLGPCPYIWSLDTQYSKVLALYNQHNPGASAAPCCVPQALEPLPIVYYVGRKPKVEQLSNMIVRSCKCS

B1 and B2 are the same in “half-maximal inhibition of IL-11 release (EC50), A549 cells” value: ~0.1 nM for the first, ~0.1 nM for the second.

biological target: T1, TGF-β1; assay: cell-based or functional assay; remark: another data set of the same source

Compared with B3, B4 is 2.5-fold higher in “IC50 (read off the curve); IL-11 release by A549 cells in response to TGF-β1” value (shortened to “IC50 (read off the curve); IL-11 release”): ~0.08 nM for the first, ~0.2 nM for the second.

B5 and B6 are the same in “IC50 (read off the curve); IL-11 release” value: ~0.2 nM for the first, ~0.2 nM for the second.

biological target: T1, TGF-β1; assay: cell-based or functional assay; remark: another data set of the same source

B1 and B2 are within 1.5-fold of each other in “IC50 (read off the curve); IL-11 release” value: ~0.05 nM for the first, ~0.06 nM for the second.

biological target: T1, TGF-β1; assay: cell-based or functional assay; remark: another data set of the same source

Compared with B7, B8 is 1.5-fold lower in “IC50 (read off the curve); IL-11 release” value: ~0.03 nM for the first, ~0.02 nM for the second.

Going from B9 to B10, the “IC50 (read off the curve); IL-11 release” value rises from ~0.02 nM to ~0.07 nM (3.5-fold).

biological target: T1, TGF-β1; assay: SPR (Biacore); amine-coupled TGF-β1 on chip, antibody as analyte, kinetic fit
Source text: Recombinant mAb1-D10 fusion variants of Example 7 were also quantitatively assessed for TGF-β1 binding using surface plasmon resonance (SPR) as detected by Biacore. Samples containing purified variants were passed over a sensor chip with amine-coupled TGF-β1 to determine the equilibrium constant, KD. A target immobilization level of less than 100 response units (RU) of TGF-β1 was chosen to minimize the potential for avidity effects arising from binding adjacent TGF-β1 molecules on the chip. The level of immobilization was determined by the change in response units after NHS/EDC activation of the chip surface, but before quenching with ethanolamine. The fusion variants, WT fusion variant F1, and mAb1 control were diluted to 30, 10, 3, 1 and 0.37 nM in HBS-EP buffer and passed over the TGF-β1 chip at 30 μL/min for 3 min, followed by 5 min dissociation in the same buffer. Between runs, the chip surface was regenerated to remove any bound antibody by passing two 30 sec injections of 40 mM HCl over the chip at a flow rate of 75 μL/min. […] Unexpectedly, the maximum signal (RU) elicited by the fusion variants decreased with increasing number of peptides, with variant F17 (D10-HC-D10/D10-LC, PAR=6) showing the lowest signal. […] A possible explanation of this decline may reflect electrostatic repulsion between the chip matrix (carboxymethyl dextran) and the negatively charged D10 peptides.

B3 and B7 are within 1.5-fold of each other in Kd: 5.43 nM for the first, 5.41 nM for the second.

First: B8
Second: B4
The Kd of the first is 1.7-fold higher: 4.15 nM for the first, 2.51 nM for the second. The second binds more tightly here.

B9 and B5 are within 1.5-fold of each other in Kd: 6.88 nM for the first, 6.01 nM for the second.

B6 and B10 are within 1.5-fold of each other in Kd: 4.58 nM for the first, 5.62 nM for the second.

B3 and B7 are within 1.5-fold of each other in koff: 0.00094 s⁻¹ for the first, 0.00093 s⁻¹ for the second.

B8 and B4 are within 1.5-fold of each other in koff: 0.00079 s⁻¹ for the first, 0.00085 s⁻¹ for the second.

B9 and B5 are within 1.5-fold of each other in koff: 0.0011 s⁻¹ for the first, 0.001 s⁻¹ for the second.

B6 and B10 are within 1.5-fold of each other in koff: 0.00084 s⁻¹ for the first, 0.00092 s⁻¹ for the second.

B3 and B7 are within 1.5-fold of each other in kon: 172000 M⁻¹ s⁻¹ for the first, 171000 M⁻¹ s⁻¹ for the second.

Compared with B8, B4 is 1.8-fold higher in kon: 191000 M⁻¹ s⁻¹ for the first, 338000 M⁻¹ s⁻¹ for the second.

B9 and B5 are within 1.5-fold of each other in kon: 159000 M⁻¹ s⁻¹ for the first, 166000 M⁻¹ s⁻¹ for the second.

B6 and B10 are within 1.5-fold of each other in kon: 182000 M⁻¹ s⁻¹ for the first, 164000 M⁻¹ s⁻¹ for the second.
